Data taken from US20190169286A1 (Chugai, published 2019).
Numbering of substitutions follows the chain as printed. In names and notes the source's numbering stands. Each block holds one binder with its values, some of them ahead of it.

How the values were obtained:
human IL-8 [1] = target: T1, human IL-8 (human, UniProt P10145 23-99, limits assumed); experiment: SPR Biacore T200, Protein A/G capture, pH 7.4, 40C;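 further: antibodies captured via Protein A/G, which was amine-coupled to a CM4 sensor chip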
T1 construct: also called hIL-8; hIL8
T1 sequence (P10145 23-99 limits assumed): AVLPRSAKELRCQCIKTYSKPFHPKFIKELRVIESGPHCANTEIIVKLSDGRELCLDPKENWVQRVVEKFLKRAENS
Method: (§1) An appropriate amount of Protein A/G (PIERCE) was immobilized onto the Sensor chip CM4 (GE Healthcare) by the amine coupling method and the antibodies of interest were captured. […] To regenerate the sensor chip, 25 mM NaOH and 10 mM glycine-HCl (pH 1.5) were used. […] The BIACORE T200 Evaluation Software (GE Healthcare) was used to calculate each parameter.

human IL-8 [2] = target: T1, human IL-8; experiment: SPR Biacore T200, Protein A/G capture, pH 5.8, 37C;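 further: antibodies captured by Protein A/G amine-coupled onto a CM4 sensor chip, with kinetic parameters derived using Biacore T200 Evaluation Software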
Method: as §1

Kd (human IL-8 [1]): 0.16 nM
B1: H0932/L0395 (antibody, name in Kabat numbering, V domains shown)
VH: QVQLVESGGGLVQPGGSLRLSCAASGFTFSDYYLSWVRQAPGKGLEWVGLIRNKDNHHTPEYSASVKGRFTISRDDSKNSLYLTMSDLKTEDTAVYYCARENHRYDVELAYWGQGTLVTVSS
VL: DIQMTQSPSSLSASVGDRVTITCRASEIIYSYLAWYQQKPGKAPKLLIYKAKTHADGVPSRFSGSGSGTDFTFTISSLQPEDIATYYCKHHFGFPRTFGQGTKVEIKR

Kd (human IL-8 [2]): 33 nM | koff (human IL-8 [2]): 0.0045 s⁻¹ | Kd (human IL-8 [1]): 0.053 nM
B2: H1049/L0442 (antibody, human IgG1, kappa, name in Kabat numbering, V domains shown)
VH: B1 VH with S30D, D31K, H57Y
VL: B1 VL with S31E
notes: L442 = L395 + S31E

Kd (human IL-8 [2]): 77 nM | koff (human IL-8 [2]): 0.02 s⁻¹ | Kd (human IL-8 [1]): 0.22 nM
B3: H1004/L0442 (antibody, human IgG1, kappa, name in Kabat numbering, V domains shown)
VH: B1 VH with H57G, H58Y
VL: B1 VL with S31E
notes: L442 = L395 + S31E

Kd (human IL-8 [2]): 55 nM | koff (human IL-8 [2]): 0.008 s⁻¹ | Kd (human IL-8 [1]): 0.086 nM
B4: H1029/L0395 (antibody, human IgG1, kappa, name in Kabat numbering, V domains shown)
VH: B1 VH with S30D, D31K
VL: B1 VL

Kd (human IL-8 [2]): 240 nM | koff (human IL-8 [2]): 0.046 s⁻¹ | Kd (human IL-8 [1]): 0.26 nM
B5: H1040/L0395 (antibody, human IgG1, kappa, name in Kabat numbering, V domains shown)
VH: B1 VH with D31E, T59H
VL: B1 VL

Kd (human IL-8 [2]): 89 nM | koff (human IL-8 [2]): 0.02 s⁻¹ | Kd (human IL-8 [1]): 0.14 nM
B6: H1000/L0395 (antibody, human IgG1, kappa, name in Kabat numbering, V domains shown)
VH: B1 VH with D31E
VL: B1 VL

Kd (human IL-8 [2]): 90 nM
B7: H1048/L0395 (antibody, human IgG1, kappa, name in Kabat numbering, V domains shown)
VH: B1 VH with D31E, H57G, H58Y
VL: B1 VL

Kd (human IL-8 [2]): 50 nM | koff (human IL-8 [2]): 0.0041 s⁻¹ | Kd (human IL-8 [1]): 0.042 nM
B8: H1032/L0395 (antibody, human IgG1, kappa, name in Kabat numbering, V domains shown)
VH: B1 VH with S30D, D31K, H57G, H58Y, T59H
VL: B1 VL

Kd (human IL-8 [2]): 99 nM
B9: H1031/L0395 (antibody, human IgG1, kappa, name in Kabat numbering, V domains shown)
VH: B1 VH with S30D, D31K, T59H
VL: B1 VL

Kd (human IL-8 [2]): 43 nM | koff (human IL-8 [2]): 0.0059 s⁻¹ | Kd (human IL-8 [1]): 0.078 nM
B10: H1032/L0442 (antibody, human IgG1, kappa, name in Kabat numbering, V domains shown)
VH: B1 VH with S30D, D31K, H57G, H58Y, T59H
VL: B1 VL with S31E
notes: L442 = L395 + S31E

Kd (human IL-8 [2]): 48 nM | koff (human IL-8 [2]): 0.0085 s⁻¹ | Kd (human IL-8 [1]): 0.14 nM
B11: H1029/L0442 (antibody, human IgG1, kappa, name in Kabat numbering, V domains shown)
VH: B1 VH with S30D, D31K
VL: B1 VL with S31E
notes: L442 = L395 + S31E

Kd (human IL-8 [2]): 210 nM | Kd (human IL-8 [1]): 0.18 nM
B12: H1028/L0395 (antibody, human IgG1, kappa, name in Kabat numbering, V domains shown)
VH: B1 VH with H57Y, T59H
VL: B1 VL

Kd (human IL-8 [2]): 71 nM | koff (human IL-8 [2]): 0.013 s⁻¹ | Kd (human IL-8 [1]): 0.08 nM
B13: H1041/L0395 (antibody, human IgG1, kappa, name in Kabat numbering, V domains shown)
VH: B1 VH with D31E, H57G, H58Y, T59H
VL: B1 VL

Kd (human IL-8 [2]): 47 nM
B14: H1047/L0442 (antibody, human IgG1, kappa, name in Kabat numbering, V domains shown)
VH: B1 VH with S30D, D31K, H57G, H58Y
VL: B1 VL with S31E
notes: L442 = L395 + S31E

Kd (human IL-8 [2]): 160 nM | koff (human IL-8 [2]): 0.012 s⁻¹ | Kd (human IL-8 [1]): 0.18 nM
B15: H1046/L0395 (antibody, human IgG1, kappa, name in Kabat numbering, V domains shown)
VH: B1 VH with D31E, H57Y, T59H
VL: B1 VL

Kd (human IL-8 [2]): 38 nM | koff (human IL-8 [2]): 0.004 s⁻¹ | Kd (human IL-8 [1]): 0.025 nM
B16: H1049/L0395 (antibody, human IgG1, kappa, name in Kabat numbering, V domains shown)
VH: B1 VH with S30D, D31K, H57Y
VL: B1 VL

Kd (human IL-8 [2]): 180 nM | koff (human IL-8 [2]): 0.02 s⁻¹ | Kd (human IL-8 [1]): 0.36 nM
B17: H1022/L0442 (antibody, human IgG1, kappa, name in Kabat numbering, V domains shown)
VH: B1 VH with T59H
VL: B1 VL with S31E
notes: L442 = L395 + S31E

Kd (human IL-8 [2]): 47 nM | koff (human IL-8 [2]): 0.006 s⁻¹ | Kd (human IL-8 [1]): 0.095 nM
B18: H1047/L0395 (antibody, human IgG1, kappa, name in Kabat numbering, V domains shown)
VH: B1 VH with S30D, D31K, H57G, H58Y
VL: B1 VL

Kd (human IL-8 [2]): 61 nM | koff (human IL-8 [2]): 0.015 s⁻¹ | Kd (human IL-8 [1]): 0.12 nM
B19: H1041/L0442 (antibody, human IgG1, kappa, name in Kabat numbering, V domains shown)
VH: B1 VH with D31E, H57G, H58Y, T59H
VL: B1 VL with S31E
notes: L442 = L395 + S31E

Kd (human IL-8 [2]): 70 nM | koff (human IL-8 [2]): 0.015 s⁻¹ | Kd (human IL-8 [1]): 0.094 nM
B20: H1037/L0395 (antibody, human IgG1, kappa, name in Kabat numbering, V domains shown)
VH: B1 VH with S30D, D31K, H57Y, T59H
VL: B1 VL

Kd (human IL-8 [2]): 71 nM | koff (human IL-8 [2]): 0.017 s⁻¹ | Kd (human IL-8 [1]): 0.2 nM
B21: H1000/L0442 (antibody, human IgG1, kappa, name in Kabat numbering, V domains shown)
VH: B1 VH with D31E
VL: B1 VL with S31E
notes: L442 = L395 + S31E

Kd (human IL-8 [2]): 290 nM | koff (human IL-8 [2]): 12 s⁻¹ | Kd (human IL-8 [1]): 0.27 nM
B22: H1022/L0395 (antibody, human IgG1, kappa, name in Kabat numbering, V domains shown)
VH: B1 VH with T59H
VL: B1 VL

Kd (human IL-8 [1]): 0.23 nM
B23: H1046/L0442 (antibody, human IgG1, kappa, name in Kabat numbering, V domains shown)
VH: B1 VH with D31E, H57Y, T59H
VL: B1 VL with S31E
notes: L442 = L395 + S31E

Kd (human IL-8 [2]): 77 nM | koff (human IL-8 [2]): 0.005 s⁻¹ | Kd (human IL-8 [1]): 0.066 nM
B24: H1050/L0395 (antibody, human IgG1, kappa, name in Kabat numbering, V domains shown)
VH: B1 VH with D31E, H57Y
VL: B1 VL

Kd (human IL-8 [2]): 140 nM | koff (human IL-8 [2]): 0.13 s⁻¹ | Kd (human IL-8 [1]): 0.24 nM
B25: H1028/L0442 (antibody, human IgG1, kappa, name in Kabat numbering, V domains shown)
VH: B1 VH with H57Y, T59H
VL: B1 VL with S31E
notes: L442 = L395 + S31E

Kd (human IL-8 [2]): 79 nM
B26: H0932/L0442 (antibody, human IgG1, kappa, name in Kabat numbering, V domains shown)
VH: B1 VH
VL: B1 VL with S31E

Kd (human IL-8 [2]): 61 nM | koff (human IL-8 [2]): 0.015 s⁻¹ | Kd (human IL-8 [1]): 0.13 nM
B27: H1037/L0442 (antibody, human IgG1, kappa, name in Kabat numbering, V domains shown)
VH: B1 VH with S30D, D31K, H57Y, T59H
VL: B1 VL with S31E
notes: L442 = L395 + S31E

Kd (human IL-8 [2]): 63 nM | koff (human IL-8 [2]): 0.006 s⁻¹ | Kd (human IL-8 [1]): 0.11 nM
B28: H1009/L0442 (antibody, human IgG1, kappa, name in Kabat numbering, V domains shown)
VH: B1 VH with H57Y
VL: B1 VL with S31E
notes: L442 = L395 + S31E

Kd (human IL-8 [2]): 89 nM
B29: H1031/L0442 (antibody, human IgG1, kappa, name in Kabat numbering, V domains shown)
VH: B1 VH with S30D, D31K, T59H
VL: B1 VL with S31E
notes: L442 = L395 + S31E

Kd (human IL-8 [2]): 67 nM
B30: H1048/L0442 (antibody, human IgG1, kappa, name in Kabat numbering, V domains shown)
VH: B1 VH with D31E, H57G, H58Y
VL: B1 VL with S31E
notes: L442 = L395 + S31E
